Data from US20090181003.

Legend:
PDK1 (recombinant) = tested on: T1, PDK1 (recombinant)
T1 sequence (O15530 1-556, species assumed, looked up): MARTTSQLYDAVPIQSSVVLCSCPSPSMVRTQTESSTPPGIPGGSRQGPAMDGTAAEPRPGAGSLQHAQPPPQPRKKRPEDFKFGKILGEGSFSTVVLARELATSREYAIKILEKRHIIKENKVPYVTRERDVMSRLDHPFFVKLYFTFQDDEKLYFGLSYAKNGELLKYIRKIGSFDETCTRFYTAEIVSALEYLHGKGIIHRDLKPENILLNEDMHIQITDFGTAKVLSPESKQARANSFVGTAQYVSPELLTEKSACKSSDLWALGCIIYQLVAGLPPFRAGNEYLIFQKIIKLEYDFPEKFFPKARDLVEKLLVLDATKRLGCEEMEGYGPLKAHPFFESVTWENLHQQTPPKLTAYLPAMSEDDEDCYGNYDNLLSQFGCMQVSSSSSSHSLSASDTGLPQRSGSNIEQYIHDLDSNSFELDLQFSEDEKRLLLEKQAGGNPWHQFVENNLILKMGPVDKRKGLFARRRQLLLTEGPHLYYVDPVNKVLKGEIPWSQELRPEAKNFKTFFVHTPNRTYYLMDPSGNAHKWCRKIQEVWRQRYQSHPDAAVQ

[1] = tested on: PI3-K (p85a/p110a complex)
[2] = tested on: recombinant S6K1 (highly purified)
[3] = tested on: recombinant S6K2 (highly purified)
Chain of recombinant S6K2 (highly purified) (chain, as listed by the source): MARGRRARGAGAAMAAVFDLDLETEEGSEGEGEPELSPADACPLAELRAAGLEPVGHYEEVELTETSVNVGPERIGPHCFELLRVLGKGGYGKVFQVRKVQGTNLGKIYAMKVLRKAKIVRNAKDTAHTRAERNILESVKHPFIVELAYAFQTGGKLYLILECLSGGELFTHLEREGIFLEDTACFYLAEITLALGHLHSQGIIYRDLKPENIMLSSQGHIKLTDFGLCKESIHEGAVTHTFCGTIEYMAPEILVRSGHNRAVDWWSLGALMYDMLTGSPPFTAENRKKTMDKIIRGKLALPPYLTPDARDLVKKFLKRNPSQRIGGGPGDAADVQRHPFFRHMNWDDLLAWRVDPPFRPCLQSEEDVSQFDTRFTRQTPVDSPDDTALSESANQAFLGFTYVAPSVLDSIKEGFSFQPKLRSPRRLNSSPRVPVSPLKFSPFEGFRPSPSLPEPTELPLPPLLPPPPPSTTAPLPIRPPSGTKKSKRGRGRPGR

Chain of PKB/Akt (recombinant) (P31749 whole entry): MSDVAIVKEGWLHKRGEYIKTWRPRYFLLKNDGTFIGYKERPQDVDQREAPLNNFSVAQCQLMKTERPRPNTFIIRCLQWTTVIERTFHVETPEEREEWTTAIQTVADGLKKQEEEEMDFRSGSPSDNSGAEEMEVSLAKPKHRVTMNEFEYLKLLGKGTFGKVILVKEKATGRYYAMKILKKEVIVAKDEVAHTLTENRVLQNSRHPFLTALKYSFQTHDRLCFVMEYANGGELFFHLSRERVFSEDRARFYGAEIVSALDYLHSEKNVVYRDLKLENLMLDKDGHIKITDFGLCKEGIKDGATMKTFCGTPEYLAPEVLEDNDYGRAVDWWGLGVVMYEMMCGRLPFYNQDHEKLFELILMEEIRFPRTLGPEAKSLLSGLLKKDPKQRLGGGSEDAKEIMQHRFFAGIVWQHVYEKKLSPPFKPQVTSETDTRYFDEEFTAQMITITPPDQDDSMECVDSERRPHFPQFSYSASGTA

Q: What does the source list for full-length p300?
A: in vitro acetylation by immunoprecipitated full-length p300 (PDK1 (recombinant)): no acetylation is observed for PKB/Akt, PDK1, PI3-K (p85a/p110a complex) under conditions used; in vitro acetylation by immunoprecipitated full-length p300 [1]: no acetylation is observed for PKB/Akt, PDK1, PI3-K (p85a/p110a complex) under conditions used; in vitro acetylation by immunoprecipitated full-length p300 (PKB/Akt (recombinant)): no acetylation is observed for PKB/Akt, PDK1, PI3-K (p85a/p110a complex) under conditions used; in vitro acetylation by immunoprecipitated full-length p300 (PKCa (recombinant)): We detected weak, but reproducible acetylation of PKCa; site of in vitro acetylation (MALDI tandem mass spectrometry of tryptic peptide 509Q-R522) [2]: this peptide was acetylated on the Lysine 516; in vitro acetylation by immunoprecipitated full-length p300 [3]: S6K2 is acetylated in the presence of p300 and AcCoA; site of in vitro acetylation (MALDI mass spectrometry of Arg-C peptide 297 to 310) [3]: contains a lysine at position 2 (residue 298 in S6K2). This peptide was sequenced and the acetylated lysine was confirmed (data not shown)
